From patent publication US20090311267A1
Blank lines part the entries; values can stand above or below the substance they belong to.

What was measured:
[1] = molecular target: mouse GPIIb/IIIa (on mouse platelets) (mouse) (UniProt Q9QUM0); test: receptor occupancy on platelets of mice after 100 µg JON/A F(ab)2 i.v.
[2] = molecular target: mouse GPIIb/IIIa (on mouse platelets) (mouse) (UniProt Q9QUM0); test: receptor occupancy on platelets of mice after 20 µg JON/A F(ab)2 i.v.
[3] = molecular target: mouse GPIIb/IIIa (on mouse platelets) (mouse) (UniProt Q9QUM0); test: receptor occupancy on platelets of mice after 10 µg JON/A F(ab)2 i.v.
[4] = molecular target: human collagen type I (human) (UniProt P02452); test: ex vivo ELISA, baboon plasma vWF on human collagen type I, % of pre-sample; 82D6A3 600 µg/kg, 30 min
[5] = molecular target: human collagen type I (human) (UniProt P02452); test: ex vivo ELISA, baboon plasma vWF on human collagen type I, % of pre-sample; 82D6A3 100 µg/kg, 30 min
[6] = molecular target: human collagen type I (human) (UniProt P02452); test: ex vivo ELISA, baboon plasma vWF on human collagen type I, % of pre-sample; 82D6A3 300 µg/kg, 300 min
[7] = molecular target: human collagen type I (human) (UniProt P02452); test: ex vivo ELISA, baboon plasma vWF on human collagen type I, % of pre-sample; 82D6A3 100 µg/kg group, 0 min
[8] = molecular target: human collagen type I (human) (UniProt P02452); test: ex vivo ELISA, baboon plasma vWF on human collagen type I, % of pre-sample; 82D6A3 300 µg/kg, 48 h
[9] = molecular target: human collagen type I (human) (UniProt P02452); test: ex vivo ELISA, baboon plasma vWF on human collagen type I, % of pre-sample; 82D6A3 600 µg/kg, 60 min
[10] = molecular target: human collagen type I (human) (UniProt P02452); test: ex vivo ELISA, baboon plasma vWF on human collagen type I, % of pre-sample; 82D6A3 300 µg/kg, 60 min
[11] = molecular target: human collagen type I (human) (UniProt P02452); test: ex vivo ELISA, baboon plasma vWF on human collagen type I, % of pre-sample; 82D6A3 600 µg/kg, 150 min
[12] = molecular target: human collagen type I (human) (UniProt P02452); test: ex vivo ELISA, baboon plasma vWF on human collagen type I, % of pre-sample; 82D6A3 300 µg/kg group, 0 min
[13] = molecular target: human collagen type I (human) (UniProt P02452); test: ex vivo ELISA, baboon plasma vWF on human collagen type I, % of pre-sample; 82D6A3 100 µg/kg, 60 min
[14] = molecular target: human collagen type I (human) (UniProt P02452); test: ex vivo ELISA, baboon plasma vWF on human collagen type I, % of pre-sample; 82D6A3 300 µg/kg, 150 min
[15] = molecular target: human collagen type I (human) (UniProt P02452); test: ex vivo ELISA, baboon plasma vWF on human collagen type I, % of pre-sample; 82D6A3 600 µg/kg, 24 h
[16] = molecular target: human collagen type I (human) (UniProt P02452); test: ex vivo ELISA, baboon plasma vWF on human collagen type I, % of pre-sample; 82D6A3 600 µg/kg, 300 min
[17] = molecular target: human collagen type I (human) (UniProt P02452); test: ex vivo ELISA, baboon plasma vWF on human collagen type I, % of pre-sample; 82D6A3 300 µg/kg, 30 min
[18] = molecular target: human collagen type I (human) (UniProt P02452); test: ex vivo ELISA, baboon plasma vWF on human collagen type I, % of pre-sample; 82D6A3 600 µg/kg group, 0 min
[19] = molecular target: human collagen type I (human) (UniProt P02452); test: ex vivo ELISA, baboon plasma vWF on human collagen type I, % of pre-sample; 82D6A3 300 µg/kg, 24 h
[20] = molecular target: baboon platelet GPIb (on baboon platelets) (baboon (Papio ursinus)); test: GPIb occupancy on baboon platelets, 150 minutes after bolus of 600 µg/kg
[21] = molecular target: baboon platelet GPIb (on baboon platelets) (baboon (Papio ursinus)); test: GPIb occupancy on baboon platelets, 30 minutes after bolus of 4 mg/kg
[22] = molecular target: baboon platelet GPIb (on baboon platelets) (baboon (Papio ursinus)); test: 125I-labelled fragment on baboon platelets in plasma
[23] = molecular target: baboon platelet GPIb (on baboon platelets) (baboon (Papio ursinus)); test: GPIb occupancy on baboon platelets, 300 minutes after bolus of 600 µg/kg
[24] = molecular target: baboon platelet GPIb (on baboon platelets) (baboon (Papio ursinus)); test: cell-based or functional assay
[25] = molecular target: baboon platelet GPIb (on baboon platelets) (baboon (Papio ursinus)); test: GPIb occupancy on baboon platelets, 300 minutes after bolus of 2 mg/kg
[26] = molecular target: baboon platelet GPIb (on baboon platelets) (baboon (Papio ursinus)); test: GPIb occupancy on baboon platelets, 60 minutes after bolus of 4 mg/kg
[27] = molecular target: baboon platelet GPIb (on baboon platelets) (baboon (Papio ursinus)); test: GPIb occupancy on baboon platelets, 30 minutes after bolus of 2 mg/kg
[28] = molecular target: baboon platelet GPIb (on baboon platelets) (baboon (Papio ursinus)); test: GPIb occupancy on baboon platelets, 60 minutes after bolus of 600 µg/kg
[29] = molecular target: baboon platelet GPIb (on baboon platelets) (baboon (Papio ursinus)); test: GPIb occupancy on baboon platelets, 30 minutes after bolus of 600 µg/kg
[30] = molecular target: baboon platelet GPIb (on baboon platelets) (baboon (Papio ursinus)); test: GPIb occupancy on baboon platelets, 150 minutes after bolus of 4 mg/kg
[31] = molecular target: baboon platelet GPIb (on baboon platelets) (baboon (Papio ursinus)); test: GPIb occupancy on baboon platelets, 300 minutes after bolus of 4 mg/kg
[32] = molecular target: baboon platelet GPIb (on baboon platelets) (baboon (Papio ursinus)); test: GPIb occupancy on baboon platelets, 60 minutes after bolus of 2 mg/kg
[33] = molecular target: baboon platelet GPIb (on baboon platelets) (baboon (Papio ursinus)); test: GPIb occupancy on baboon platelets, 150 minutes after bolus of 2 mg/kg
[34] = molecular target: purified human von Willebrand factor (human) (UniProt P04275); test: cell-based or functional assay
[35] = molecular target: purified human von Willebrand factor (human) (UniProt P04275); test: ELISA: inhibition of plasma or purified vWF binding to coated human collagen type I

mouse GPIIb/IIIa (on mouse platelets) (mouse), sequence (Q9QUM0 32-1033, chain 1 of 2): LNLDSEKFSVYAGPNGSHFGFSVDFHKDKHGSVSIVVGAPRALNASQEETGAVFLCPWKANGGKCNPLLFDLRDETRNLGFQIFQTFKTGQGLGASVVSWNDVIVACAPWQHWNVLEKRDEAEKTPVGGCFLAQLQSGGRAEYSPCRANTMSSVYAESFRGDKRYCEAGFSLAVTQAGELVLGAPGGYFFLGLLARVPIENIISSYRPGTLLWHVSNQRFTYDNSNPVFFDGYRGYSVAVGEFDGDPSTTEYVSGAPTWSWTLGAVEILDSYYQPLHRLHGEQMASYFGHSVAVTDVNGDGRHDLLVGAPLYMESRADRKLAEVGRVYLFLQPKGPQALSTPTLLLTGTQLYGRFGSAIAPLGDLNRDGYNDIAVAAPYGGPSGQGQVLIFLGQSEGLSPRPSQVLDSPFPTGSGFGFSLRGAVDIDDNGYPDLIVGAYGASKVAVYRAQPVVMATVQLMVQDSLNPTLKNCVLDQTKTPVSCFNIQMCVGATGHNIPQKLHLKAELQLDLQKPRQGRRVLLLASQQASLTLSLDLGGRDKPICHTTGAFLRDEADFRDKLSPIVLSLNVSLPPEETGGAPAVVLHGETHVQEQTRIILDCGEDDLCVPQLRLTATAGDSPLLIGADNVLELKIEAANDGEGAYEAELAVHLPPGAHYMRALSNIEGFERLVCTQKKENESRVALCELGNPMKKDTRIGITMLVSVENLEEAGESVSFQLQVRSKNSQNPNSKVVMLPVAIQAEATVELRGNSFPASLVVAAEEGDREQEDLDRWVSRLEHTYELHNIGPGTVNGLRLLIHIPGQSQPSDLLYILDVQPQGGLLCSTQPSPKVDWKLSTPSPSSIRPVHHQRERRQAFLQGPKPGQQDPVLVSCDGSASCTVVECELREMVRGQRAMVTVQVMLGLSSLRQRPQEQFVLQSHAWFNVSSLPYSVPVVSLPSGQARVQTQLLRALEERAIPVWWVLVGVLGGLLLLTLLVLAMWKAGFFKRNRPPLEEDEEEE
mouse GPIIb/IIIa (on mouse platelets) (mouse), sequence (O54890 26-787, chain 2 of 2, further chain): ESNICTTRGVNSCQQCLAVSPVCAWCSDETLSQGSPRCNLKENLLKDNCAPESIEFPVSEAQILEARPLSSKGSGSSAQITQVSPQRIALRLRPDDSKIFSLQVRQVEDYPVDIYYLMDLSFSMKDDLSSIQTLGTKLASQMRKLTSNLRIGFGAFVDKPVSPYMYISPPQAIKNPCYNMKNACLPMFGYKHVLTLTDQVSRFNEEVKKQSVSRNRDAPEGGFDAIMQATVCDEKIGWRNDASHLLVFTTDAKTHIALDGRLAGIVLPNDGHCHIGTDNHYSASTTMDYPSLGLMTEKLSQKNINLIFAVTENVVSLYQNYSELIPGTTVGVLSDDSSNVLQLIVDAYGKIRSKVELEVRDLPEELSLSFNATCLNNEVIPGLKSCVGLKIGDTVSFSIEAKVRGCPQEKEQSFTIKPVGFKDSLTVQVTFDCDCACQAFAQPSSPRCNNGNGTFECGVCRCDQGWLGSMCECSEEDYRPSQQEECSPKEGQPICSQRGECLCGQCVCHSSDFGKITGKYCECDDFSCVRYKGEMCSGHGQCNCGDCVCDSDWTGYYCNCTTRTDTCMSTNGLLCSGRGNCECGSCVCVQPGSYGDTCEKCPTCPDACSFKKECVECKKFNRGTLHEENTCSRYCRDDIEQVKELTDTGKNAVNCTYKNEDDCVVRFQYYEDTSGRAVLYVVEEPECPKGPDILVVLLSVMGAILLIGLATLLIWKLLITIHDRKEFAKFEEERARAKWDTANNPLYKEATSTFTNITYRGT
human collagen type I (human), sequence (P02452 162-1218, chain 1 of 2): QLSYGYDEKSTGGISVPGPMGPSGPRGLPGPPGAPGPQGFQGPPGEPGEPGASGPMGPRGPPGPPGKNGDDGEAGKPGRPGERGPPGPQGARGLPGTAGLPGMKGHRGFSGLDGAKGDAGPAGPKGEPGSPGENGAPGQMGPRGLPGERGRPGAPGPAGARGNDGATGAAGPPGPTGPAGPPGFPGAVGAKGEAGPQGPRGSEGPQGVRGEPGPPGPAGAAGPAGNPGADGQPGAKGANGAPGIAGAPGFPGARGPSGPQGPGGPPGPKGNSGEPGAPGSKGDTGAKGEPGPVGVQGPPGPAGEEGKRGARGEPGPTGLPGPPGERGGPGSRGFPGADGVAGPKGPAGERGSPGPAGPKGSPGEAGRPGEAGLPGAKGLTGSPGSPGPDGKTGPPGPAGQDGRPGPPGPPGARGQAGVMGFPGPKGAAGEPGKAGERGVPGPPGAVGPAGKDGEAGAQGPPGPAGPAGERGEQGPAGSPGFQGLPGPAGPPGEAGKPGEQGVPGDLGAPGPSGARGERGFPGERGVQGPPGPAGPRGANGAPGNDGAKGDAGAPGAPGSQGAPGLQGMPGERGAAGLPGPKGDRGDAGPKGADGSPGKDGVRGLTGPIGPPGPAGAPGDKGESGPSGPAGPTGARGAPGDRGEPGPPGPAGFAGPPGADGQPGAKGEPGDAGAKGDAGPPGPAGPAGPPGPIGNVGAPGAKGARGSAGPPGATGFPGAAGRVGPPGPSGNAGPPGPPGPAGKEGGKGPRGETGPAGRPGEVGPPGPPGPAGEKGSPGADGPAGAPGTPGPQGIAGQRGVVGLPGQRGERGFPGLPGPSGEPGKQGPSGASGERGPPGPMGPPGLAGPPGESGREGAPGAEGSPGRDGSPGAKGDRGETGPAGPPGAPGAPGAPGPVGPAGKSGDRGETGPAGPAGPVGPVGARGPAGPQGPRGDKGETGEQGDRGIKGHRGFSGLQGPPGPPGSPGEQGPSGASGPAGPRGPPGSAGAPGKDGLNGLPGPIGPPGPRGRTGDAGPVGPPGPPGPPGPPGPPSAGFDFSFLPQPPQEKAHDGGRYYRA
human collagen type I (human), sequence (P08123 80-1119, chain 2 of 2, further chain): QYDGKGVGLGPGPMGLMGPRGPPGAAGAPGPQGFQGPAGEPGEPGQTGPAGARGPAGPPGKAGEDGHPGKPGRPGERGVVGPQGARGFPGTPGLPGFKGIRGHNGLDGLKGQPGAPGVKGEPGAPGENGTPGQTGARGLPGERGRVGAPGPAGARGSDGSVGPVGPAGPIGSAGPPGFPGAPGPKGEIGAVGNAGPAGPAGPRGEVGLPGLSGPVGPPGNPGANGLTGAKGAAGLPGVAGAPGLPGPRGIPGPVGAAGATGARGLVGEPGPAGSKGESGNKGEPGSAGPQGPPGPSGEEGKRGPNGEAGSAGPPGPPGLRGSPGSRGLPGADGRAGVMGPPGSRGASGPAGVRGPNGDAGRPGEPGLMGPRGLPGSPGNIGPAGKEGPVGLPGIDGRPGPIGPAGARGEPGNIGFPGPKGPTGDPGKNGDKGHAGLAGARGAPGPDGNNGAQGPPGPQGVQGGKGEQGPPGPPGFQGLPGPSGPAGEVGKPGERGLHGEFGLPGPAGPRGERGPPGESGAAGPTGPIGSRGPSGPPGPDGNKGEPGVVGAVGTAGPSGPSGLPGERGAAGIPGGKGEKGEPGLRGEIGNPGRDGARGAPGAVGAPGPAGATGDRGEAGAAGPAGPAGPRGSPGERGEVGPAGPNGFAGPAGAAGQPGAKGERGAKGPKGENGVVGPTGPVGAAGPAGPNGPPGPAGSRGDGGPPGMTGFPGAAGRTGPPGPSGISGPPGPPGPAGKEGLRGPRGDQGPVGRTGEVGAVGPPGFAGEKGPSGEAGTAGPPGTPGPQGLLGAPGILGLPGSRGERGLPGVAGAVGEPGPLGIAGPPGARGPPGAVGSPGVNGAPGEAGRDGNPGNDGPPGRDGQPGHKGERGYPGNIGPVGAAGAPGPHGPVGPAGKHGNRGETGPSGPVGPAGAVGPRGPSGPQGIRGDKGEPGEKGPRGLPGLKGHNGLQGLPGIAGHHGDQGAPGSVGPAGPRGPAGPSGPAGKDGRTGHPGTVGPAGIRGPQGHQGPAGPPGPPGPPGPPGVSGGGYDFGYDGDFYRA
baboon platelet GPIb (on baboon platelets) (baboon (Papio ursinus)), sequence (A0A096 entry or part of it limits assumed, form in doubt): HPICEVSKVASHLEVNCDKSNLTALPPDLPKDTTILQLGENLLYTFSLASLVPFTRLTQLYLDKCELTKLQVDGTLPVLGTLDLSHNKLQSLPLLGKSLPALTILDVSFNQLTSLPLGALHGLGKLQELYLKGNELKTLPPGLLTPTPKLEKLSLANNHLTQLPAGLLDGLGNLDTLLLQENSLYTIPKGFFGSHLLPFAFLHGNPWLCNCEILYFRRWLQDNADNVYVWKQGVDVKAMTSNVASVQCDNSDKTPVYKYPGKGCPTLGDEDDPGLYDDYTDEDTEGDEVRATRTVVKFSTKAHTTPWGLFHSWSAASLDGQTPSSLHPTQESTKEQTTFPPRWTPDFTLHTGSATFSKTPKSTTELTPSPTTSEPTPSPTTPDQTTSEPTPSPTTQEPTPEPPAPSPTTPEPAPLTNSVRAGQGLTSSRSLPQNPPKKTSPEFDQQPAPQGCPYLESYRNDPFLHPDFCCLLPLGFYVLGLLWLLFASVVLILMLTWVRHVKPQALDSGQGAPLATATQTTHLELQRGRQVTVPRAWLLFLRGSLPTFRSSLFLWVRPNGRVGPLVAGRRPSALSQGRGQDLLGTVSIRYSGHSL

- Receptor occupancy, % [1]: > 95%
- Receptor occupancy, % [2]: 78.4%
- Receptor occupancy, % [3]: 67.8%
Substance: JON/A F(ab)2 (antibody)

- collagen binding (%) [4]: 4%
- collagen binding (%) [5]: 64%
- collagen binding (%) [6]: 4%
- collagen binding (%) [7]: 101%
- collagen binding (%) [8]: 93%
- collagen binding (%) [9]: 3.5%
- collagen binding (%) [10]: 4%
- collagen binding (%) [11]: 3.52%
- collagen binding (%) [12]: 101%
- collagen binding (%) [13]: 69%
- collagen binding (%) [14]: 4%
- collagen binding (%) [15]: 45%
- collagen binding (%) [16]: 4%
- collagen binding (%) [17]: 4%
- collagen binding (%) [18]: 100%
- collagen binding (%) [19]: 91%
Substance: baboon vWF (in baboon plasma), A0A096N8H2 764-2813

- receptor occupancy [20]: 17.1%
- receptor occupancy [21]: 84%
- KD50 (half saturation) [22]: 49.2 nmol/L
- receptor occupancy [23]: 6.3%
- % inhibition of ex vivo ristocetin-induced (1.5 mg/mL) platelet agglutination; after 160 µg/kg, time 270 min [24]: 8%
- % inhibition of ex vivo ristocetin-induced (1.5 mg/mL) platelet agglutination; after 640 µg/kg, time 270 min [24]: 15%
- % inhibition of ex vivo ristocetin-induced (1.5 mg/mL) platelet agglutination; after 640 µg/kg, time 24 h [24]: 7%
- % inhibition of ex vivo ristocetin-induced (1.5 mg/mL) platelet agglutination; dose 80 µg/kg, time 90 min [24]: 26%
- % inhibition of ex vivo ristocetin-induced (1.5 mg/mL) platelet agglutination; dose 160 µg/kg, time 150 min [24]: 47%
- % inhibition of ex vivo ristocetin-induced (1.5 mg/mL) platelet agglutination; dose 320 µg/kg, time 90 min [24]: 25%
- % inhibition of ex vivo ristocetin-induced (1.5 mg/mL) platelet agglutination; dose 640 µg/kg, time 150 min [24]: 80%
- IC50 of ristocetin-induced baboon platelet aggregation [24]: 40 nM
- ex vivo ristocetin-induced platelet aggregation, % of the response before injection; 600 µg/kg, 60 minutes [24]: 16.8%
- ex vivo ristocetin-induced platelet aggregation, % of the response before injection; 600 µg/kg, 150 minutes [24]: 68.8%
- ex vivo ristocetin-induced platelet aggregation, % of the response before injection; 2 mg/kg, 60 minutes [24]: 5.2%
- ex vivo ristocetin-induced platelet aggregation, % of the response before injection; 2 mg/kg, 150 minutes [24]: 19.2%
- ex vivo ristocetin-induced platelet aggregation, % of the response before injection; 4 mg/kg, 60 minutes [24]: 2%
- ex vivo ristocetin-induced platelet aggregation, % of the response before injection; 4 mg/kg, 150 minutes [24]: 16%
- receptor occupancy [25]: 12.9%
- receptor occupancy [26]: 79%
- receptor occupancy [27]: 69.3%
- receptor occupancy [28]: 28.6%
- receptor occupancy [29]: 34.5%
- receptor occupancy [30]: 45.6%
- receptor occupancy [31]: 31.3%
- receptor occupancy [32]: 64.8%
- receptor occupancy [33]: 43.9%
Substance: 6B4 Fab fragments

- concentration for complete inhibition of platelet deposition on human collagen type I under flow, shear rate 1300 s^-1 [34]: 10 µg/mL
- IC50 [35]: 1 µg/mL
Substance: 82D6A3 F(ab) fragment (Fab)
